Consider 4 molecules from US20260347475 (published 2026).

A word on the EC50: it is the concentration at which the effect is half-maximal. Low values mean an effect from little substance, high ones a need for much substance.

The assay addresses human PD1 (human, UniProt Q15116). Kind of assay: ELISA.

Sequence of human PD1 (Q15116 25-167): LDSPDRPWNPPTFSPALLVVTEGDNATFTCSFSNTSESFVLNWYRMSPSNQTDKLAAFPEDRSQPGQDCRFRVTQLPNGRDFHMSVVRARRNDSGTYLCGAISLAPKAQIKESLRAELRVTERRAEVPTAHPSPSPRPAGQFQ

B1: P-1150 (antibody, V domains shown)
VH: QVQLVQSGVEVKKPGASVKVSCKASGYTFTNYYMYWVRQAPGQGLEWMGGINPSNGGTNFAQKFQGRVTLTTDSSTTTAYMELKSLQFDDTAVYYCARRDYRFDMGFDYWGQGTTVTVSS
VL: EIVLTQSPATLSLSPGERATLSCRASQGVSTSGYSYLAWYQQKPGQAPRLLIYLASYRASGVPARFSGSGSGTDFTLTISSLEPEDFAVYYCQHSRDLPLTFGGGTKVEIKR
As to B1, the half-maximal effective concentration (EC50) was 88 pM. This counts as picomolar.

B2: P-1148 (antibody, V domains shown)
VH: QVQLVQSGVEVKKPGASVKVSCKASGYTFTNYYMYWVRQAPGQGLEWMGGINPSNGGTNFAQKFQGRVTLTTDSSTTTAYMELKSLQFDDTAVYYCARRDYRFDMGFDYWGQGTTVTVSS
VL: EIVLTQSPATLSLSPGERATLSCRASQGVSTSGYSYLHWYQQKPGQAPRLLIYLASYRASGVPARFSGSGSGTDFTLTISSLEPEDFAVYYCQHSRDLPLTFGGGTKVEIKR
For the molecule B2, the EC50 came to 93 pM.

B3: P-1151 (antibody, V domains shown)
VH: QVQLVQSGVEVKKPGASVKVSCKASGYTFTNYYMYWVRQAPGQGLEWMGGINPSNGGTNYAQKFQGRVTLTTDSSTTTAYMELKSLQFDDTAVYYCARRDYRFDMGFDYWGQGTTVTVSS
VL: EIVLTQSPATLSLSPGERATLSCRASQGVSTSGYSYLHWYQQKPGQAPRLLIYLASYRASGVPARFSGSGSGTDFTLTISSLEPEDFAVYYCQHSRDLPLTFGGGTKVEIKR
In turn, B3 displayed an EC50 of 65 pM. This EC50 and that of the molecule before are within 1.5-fold of each other.

B4: P-1153 (antibody, V domains shown)
VH: QVQLVQSGVEVKKPGASVKVSCKASGYTFTNYYMYWVRQAPGQGLEWMGGINPSNGGTNYAQKFQGRVTLTTDSSTTTAYMELKSLQFDDTAVYYCARRDYRFDMGFDYWGQGTTVTVSS
VL: EIVLTQSPATLSLSPGERATLSCRASQGVSTSGYSYLAWYQQKPGQAPRLLIYLASYRASGVPARFSGSGSGTDFTLTISSLEPEDFAVYYCQHSRDLPLTFGGGTKVEIKR
Regarding B4, a half-maximal response (EC50) required 110 pM.
